# B1: SB1: mouse anti-SAS1B monoclonal antibody, IgG2a; VH SEQ ID NO:12, VL SEQ ID NO:13 (antibody, listed as Mus musculus, V domains shown)
# VH: EVQLQQSGPELVKPGSSVKISCKASGYTFTDYNMDWVKQSHGKSLEWIGAINPNNGGTSYNQKFKGKATLTVDKSSSTAYMELRSLTSEDSAVYYCATNEYWGQGTTLTVSS
# VL: NIVMTQSPKSMSMSVGERVTLSCKASENVGTYVSWYQQKPEQSPKLLIYGASNRYTGVPDRFTGSGSATDFTLTISSVQAEDLADYHCGQSYSYPWTFGGGTKLEIK
# B2: SB2: mouse anti-human SAS1B monoclonal antibody, IgG2b; VH SEQ ID NO:14, VL SEQ ID NO:15 (antibody, listed as Mus musculus, V domains shown)
# VH: EVQLQQSGPELVKPGSSVKISCKASGYTFTDYNMVWVKQSHGKSLEWIGAVNPNNGGTSYNQKFKGKATLTVDKSSSTAYMELRSLTSEDSAVYYCVPNWDWFAYWGQGTLVTVSA
# VL: DVLMTQTPLSLPVSLGDQASISCRSSQSLVHSNGNTYLEWYLQKPGQSPNLLIYKVSNRFSGVPDRFSGSGSGTDFTLKISRVEAEDLGVYYCFQGSHVPFTFGSGTKLEIK
# Columns and labels:
# [1] = target: T1, mouse SAS1B (Mus musculus, UniProt Q6HA09); assay: Western blot of mouse SAS1B probed with anti-human SAS1B murine mAbs; type: binding; details: Table 1
# T1 sequence (Q6HA09 24-435): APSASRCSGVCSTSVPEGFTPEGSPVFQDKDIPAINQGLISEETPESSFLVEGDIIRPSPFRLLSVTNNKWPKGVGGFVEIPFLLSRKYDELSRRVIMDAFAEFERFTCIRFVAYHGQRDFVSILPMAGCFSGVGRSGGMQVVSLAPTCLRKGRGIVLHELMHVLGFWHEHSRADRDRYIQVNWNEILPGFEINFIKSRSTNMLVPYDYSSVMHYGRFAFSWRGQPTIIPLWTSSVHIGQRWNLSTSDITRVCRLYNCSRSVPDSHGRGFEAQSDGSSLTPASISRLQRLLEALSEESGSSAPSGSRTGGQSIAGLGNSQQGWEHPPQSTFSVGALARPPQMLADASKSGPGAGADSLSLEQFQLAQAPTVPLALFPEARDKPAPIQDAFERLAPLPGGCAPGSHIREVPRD
# Source text: A western blot of human SAS1B and mouse SAS1B was probed with anti-human SAS1B murine monoclonal antibodies SB1, SB2, SB3, SB4, SB5, SB6, and SB7.
# [2] = system: human pancreatic cancer cell MPanc96; assay: ADC cytotoxicity assay (total cellular ATP), MPanc96; type: cell-based; details: 0.1 nM mAb, Fab-DMDM constant at 15 nM, ~72 hours
# Protocol: The cytotoxic effect of anti-human SAS1B mAbs SB2, SB4, SB5 on human pancreatic cancer cell MPanc96 was determined by ADC assay. Human pancreatic cancer cells MPanc96 were seeded in triplicate on 96 well plates (1100 cells per well) overnight and then treated with SB2, SB4, SB5, and […] (anti-CABYR) and anti-mouse Fab-cleavable-Duocarmycin complex for ˜72 hours. The presence of viable live cells per well was measured by total cellular ATP content in relative luminescence unit (RLU). […] The anti-SAS1B mAbs SB2, SB4, and SB5 killed 80%, 64%, 57% of cells, respectively, at 1 nM concentration when Fab-DMDM was kept constant at 15 nM for all primary antibody dilutions. SB2 killed 67% of cells at 0.1 nM concentration. […] Staurosporine, a general protein kinase inhibitor, which induces apoptosis, was used as a positive control and DMSO was used as a negative control. The data are shown in FIG. 7A-B and represent an average of triplicate experiments.
# [3] = system: SAS1B+ tumor cell lines; assay: Confocal immunofluorescence microscopy on live cells (FIG. 25); type: cell-based
# Source text: Bioassays to select therapeutic and diagnostic mAbs have focused on two strategies: 1) identification of mAbs reactive with recombinant SAS1B, endogenous SAS1B, and with SAS1B accessible on cell surfaces; and 2) mAbs that recognize epitopes preserved in formalin fixed paraffin embedded sections that work as immuno-cytochemical probes. […] These transfected cells provide one effective screening tool to identify mAbs reactive with native epitopes on SAS1B. Another screening assay is to study SAS1B+ tumor cell lines by immunofluorescence microscopy and FACS. mAbs that recognize SAS1B at the surface of live cells and gate specific cell populations by FACS have been isolated. […] Efforts to identify mAbs that localize SAS1B in fixed embedded sections have also yielded reagents of utility for histopathology. […] Thus the non-human primate ovary can be used as a positive control tissue for studying the histopathology of tumor specimens with these reagents.
Molecule,Specifically binds mouse and human SAS1B [1],Cells killed [2] [%],Binding of SAS1B on live cells [3]
B1,Yes,–,–
B2,–,67,bind SAS1B on live cells
